The sequences below were run on Escherichia coli TOP10 (assay: shrunken log2 fold change of peptide-encoding DNA abundance (4.5 h post-induction vs induction); higher = less antimicrobial activity (less host growth inhibition)). Conditions: time post-induction: 4.5 h; library: site-saturation at positions 5, 18, 19, 20.
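Note: peptides expressed intracellularly from a pBAD plasmid library in pooled LB shake-flask culture, induced with 0.3% L-arabinose, DNA abundance read by NGS, three biological replicates, DESeq2 with apeglm shrinkage.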

| Sequence | shrunken log2 fold change |
| --- | --- |
| RRIRERPPRLPRPRPRPKYIPRP | -0.0434 |
| RRIRGRPPRLPRPRPRPAHYPRP | 0.447 |
| RRIRMRPPRLPRPRPRPNTQPRP | 0.0014 |
| RRIRYRPPRLPRPRPRPQGLPRP | 0.0179 |
| RRIRQRPPRLPRPRPRPGERPRP | 0.0849 |
| RRIRYRPPRLPRPRPRPFVIPRP | -0.31 |
| RRIRWRPPRLPRPRPRPINIPRP | -1.2 |
| RRIRRRPPRLPRPRPRPAKCPRP | 0.0405 |
| RRIRVRPPRLPRPRPRPPRKPRP | 0.482 |
| RRIRGRPPRLPRPRPRPRIYPRP | 1.15 |
| RRIRMRPPRLPRPRPRPSQFPRP | 0.379 |
| RRIRKRPPRLPRPRPRPEFSPRP | 0.397 |
| RRIRFRPPRLPRPRPRPGIIPRP | -0.139 |
| RRIRIRPPRLPRPRPRPRMMPRP | -0.293 |
| RRIRPRPPRLPRPRPRPSMIPRP | -0.547 |
| RRIRPRPPRLPRPRPRPLRWPRP | 0.588 |
| RRIRFRPPRLPRPRPRPGLEPRP | -0.0646 |
| RRIRDRPPRLPRPRPRPPWLPRP | 0.296 |
| RRIRVRPPRLPRPRPRPAQPPRP | 0.228 |
| RRIRIRPPRLPRPRPRPSCCPRP | -0.471 |
| RRIRARPPRLPRPRPRPSLGPRP | 0.188 |
| RRIRGRPPRLPRPRPRPMRPPRP | 1.3 |
| RRIRVRPPRLPRPRPRPHAKPRP | 0.0066 |
| RRIRHRPPRLPRPRPRPTWTPRP | 2.15e-05 |
| RRIRKRPPRLPRPRPRPPGCPRP | 0.955 |

| Sequence | shrunken log2 fold change |
| --- | --- |
| RRIRDRPPRLPRPRPRPHCNPRP | -0.226 |
| RRIRCRPPRLPRPRPRPKRQPRP | 0.13 |
| RRIRCRPPRLPRPRPRPQYSPRP | -0.273 |
| RRIRRRPPRLPRPRPRPRTRPRP | 0.528 |
| RRIRFRPPRLPRPRPRPFHLPRP | -0.391 |
| RRIRMRPPRLPRPRPRPAFDPRP | 0.629 |
| RRIRNRPPRLPRPRPRPDAAPRP | 0.45 |
| RRIRDRPPRLPRPRPRPACEPRP | 0.58 |
| RRIRLRPPRLPRPRPRPGYVPRP | -0.17 |
| RRIRSRPPRLPRPRPRPEPVPRP | 1.44 |
| RRIRMRPPRLPRPRPRPQNRPRP | -0.0361 |
| RRIRTRPPRLPRPRPRPYTNPRP | -0.0771 |
| RRIRSRPPRLPRPRPRPEGYPRP | -0.0595 |
| RRIRYRPPRLPRPRPRPRDDPRP | -0.241 |
| RRIRSRPPRLPRPRPRPTHYPRP | -0.125 |
| RRIRDRPPRLPRPRPRPQKFPRP | -0.0467 |
| RRIRARPPRLPRPRPRPNIYPRP | -0.418 |
| RRIRSRPPRLPRPRPRPYTVPRP | -0.676 |
| RRIRKRPPRLPRPRPRPMFRPRP | 0.0113 |
| RRIRVRPPRLPRPRPRPPAFPRP | 0.068 |
| RRIRSRPPRLPRPRPRPWDGPRP | -0.0512 |
| RRIRMRPPRLPRPRPRPSCPPRP | -0.0916 |
| RRIRHRPPRLPRPRPRPYSNPRP | -0.392 |
| RRIRIRPPRLPRPRPRPQTRPRP | -0.196 |
| RRIRHRPPRLPRPRPRPYIEPRP | -0.68 |

| Sequence | shrunken log2 fold change |
| --- | --- |
| RRIRRRPPRLPRPRPRPRWIPRP | 0.356 |
| RRIRPRPPRLPRPRPRPSPCPRP | -0.0121 |
| RRIRFRPPRLPRPRPRPLIRPRP | -0.382 |
| RRIRTRPPRLPRPRPRPSMDPRP | 2.57e-05 |
| RRIRKRPPRLPRPRPRPHLHPRP | 0.265 |
| RRIRHRPPRLPRPRPRPKQIPRP | -0.0133 |
| RRIRNRPPRLPRPRPRPSESPRP | -0.0302 |
| RRIRARPPRLPRPRPRPDLLPRP | 0.0805 |
| RRIRCRPPRLPRPRPRPLSYPRP | -1.29 |
| RRIRDRPPRLPRPRPRPGMFPRP | 0.00675 |
| RRIRNRPPRLPRPRPRPTRNPRP | 0.0941 |
| RRIRVRPPRLPRPRPRPPGQPRP | 0.266 |
| RRIRCRPPRLPRPRPRPKSWPRP | 0.323 |
| RRIRNRPPRLPRPRPRPMVVPRP | 0.00587 |
| RRIRARPPRLPRPRPRPRQMPRP | 1.2 |
| RRIRNRPPRLPRPRPRPTEEPRP | -0.00968 |
| RRIRSRPPRLPRPRPRPEWMPRP | 0.0203 |
| RRIRGRPPRLPRPRPRPIADPRP | 0.16 |
| RRIRKRPPRLPRPRPRPIHHPRP | 0.0077 |
| RRIRCRPPRLPRPRPRPRYHPRP | -0.685 |
| RRIRCRPPRLPRPRPRPGNGPRP | 0.217 |
| RRIRMRPPRLPRPRPRPPQHPRP | 0.817 |
| RRIRFRPPRLPRPRPRPKIQPRP | -0.179 |
| RRIRTRPPRLPRPRPRPNNWPRP | -0.12 |
| RRIRIRPPRLPRPRPRPNNLPRP | -0.69 |

| Sequence | shrunken log2 fold change |
| --- | --- |
| RRIRERPPRLPRPRPRPSFTPRP | -1.03 |
| RRIRQRPPRLPRPRPRPIAYPRP | -0.133 |
| RRIRMRPPRLPRPRPRPPIHPRP | 0.166 |
| RRIRMRPPRLPRPRPRPQMEPRP | 0.0809 |
| RRIRGRPPRLPRPRPRPPMAPRP | 0.94 |
| RRIRLRPPRLPRPRPRPIWDPRP | -0.0847 |
| RRIRWRPPRLPRPRPRPFVHPRP | -0.423 |
| RRIRSRPPRLPRPRPRPCVNPRP | -0.0338 |
| RRIRSRPPRLPRPRPRPYMMPRP | -0.36 |
| RRIRCRPPRLPRPRPRPWKLPRP | -0.269 |
| RRIRYRPPRLPRPRPRPSRCPRP | -0.154 |
| RRIRQRPPRLPRPRPRPTMMPRP | -0.194 |
| RRIRNRPPRLPRPRPRPWFDPRP | -0.876 |
| RRIRMRPPRLPRPRPRPVMHPRP | 0.154 |
| RRIRPRPPRLPRPRPRPPRWPRP | 0.495 |
| RRIRTRPPRLPRPRPRPYHQPRP | -0.182 |
| RRIRYRPPRLPRPRPRPQANPRP | -0.694 |
| RRIRTRPPRLPRPRPRPIPNPRP | 0.0695 |
| RRIRYRPPRLPRPRPRPCKDPRP | -1.14 |
| RRIRRRPPRLPRPRPRPGGLPRP | 0.289 |
| RRIRMRPPRLPRPRPRPNRNPRP | -0.292 |
| RRIRVRPPRLPRPRPRPFQSPRP | -0.00568 |
| RRIRPRPPRLPRPRPRPNEMPRP | 0.0125 |
| RRIRDRPPRLPRPRPRPRRLPRP | 0.472 |
| RRIRSRPPRLPRPRPRPRRGPRP | 0.538 |

| Sequence | shrunken log2 fold change |
| --- | --- |
| RRIRCRPPRLPRPRPRPGCRPRP | 0.569 |
| RRIRPRPPRLPRPRPRPYCIPRP | -0.654 |
| RRIRNRPPRLPRPRPRPTWHPRP | 0.0157 |
| RRIRYRPPRLPRPRPRPLVAPRP | -0.274 |
| RRIRTRPPRLPRPRPRPLGQPRP | -0.137 |
| RRIRIRPPRLPRPRPRPPKCPRP | -0.101 |
| RRIRVRPPRLPRPRPRPNNYPRP | -0.726 |
| RRIRERPPRLPRPRPRPMQWPRP | 0.00938 |
| RRIRDRPPRLPRPRPRPEHAPRP | 0.294 |
| RRIRWRPPRLPRPRPRPDCMPRP | 0.259 |
| RRIRTRPPRLPRPRPRPFTSPRP | -0.0603 |
| RRIRKRPPRLPRPRPRPLHNPRP | 0.0882 |
| RRIRDRPPRLPRPRPRPQDTPRP | -0.366 |
| RRIRWRPPRLPRPRPRPMADPRP | 0.0452 |
| RRIRVRPPRLPRPRPRPSLWPRP | 0.183 |
| RRIRLRPPRLPRPRPRPYHCPRP | -0.575 |
| RRIRLRPPRLPRPRPRPFIQPRP | -0.418 |
| RRIRYRPPRLPRPRPRPICMPRP | -0.018 |
| RRIRSRPPRLPRPRPRPCYLPRP | -0.586 |
| RRIRSRPPRLPRPRPRPHYPPRP | -0.615 |
| RRIRYRPPRLPRPRPRPCWLPRP | 0.0283 |
| RRIRKRPPRLPRPRPRPWECPRP | 0.033 |
| RRIRTRPPRLPRPRPRPPFQPRP | 0.0322 |
| RRIRPRPPRLPRPRPRPTKFPRP | -0.0516 |
| RRIRFRPPRLPRPRPRPPYTPRP | -0.419 |

| Sequence | shrunken log2 fold change |
| --- | --- |
| RRIRYRPPRLPRPRPRPNANPRP | -2 |
| RRIRWRPPRLPRPRPRPAHAPRP | 0.191 |
| RRIRGRPPRLPRPRPRPTRNPRP | 1.61 |
| RRIRSRPPRLPRPRPRPIWWPRP | 0.361 |
| RRIRTRPPRLPRPRPRPHWCPRP | -0.00994 |
| RRIRYRPPRLPRPRPRPLMHPRP | -1.02 |
| RRIRRRPPRLPRPRPRPLPFPRP | -0.344 |
| RRIRKRPPRLPRPRPRPSAMPRP | 0.664 |
| RRIRHRPPRLPRPRPRPHGKPRP | -0.038 |
| RRIRERPPRLPRPRPRPNMIPRP | -0.272 |
| RRIRFRPPRLPRPRPRPMTRPRP | -0.173 |
| RRIRERPPRLPRPRPRPYWPPRP | -0.249 |
| RRIRQRPPRLPRPRPRPMYRPRP | 0.0341 |
| RRIRNRPPRLPRPRPRPPTDPRP | 0.992 |
| RRIRMRPPRLPRPRPRPACNPRP | 0.39 |
| RRIRERPPRLPRPRPRPEAKPRP | 0.0152 |
| RRIRSRPPRLPRPRPRPFSQPRP | -1.07 |
| RRIRCRPPRLPRPRPRPEYGPRP | -0.167 |
| RRIRERPPRLPRPRPRPMRNPRP | -0.062 |
| RRIRSRPPRLPRPRPRPNGDPRP | -0.0155 |
| RRIRLRPPRLPRPRPRPAAAPRP | 1.04 |
| RRIRKRPPRLPRPRPRPFESPRP | 0.0457 |
| RRIRYRPPRLPRPRPRPYKFPRP | -0.0196 |
| RRIRVRPPRLPRPRPRPCGYPRP | 0.0222 |
| RRIRFRPPRLPRPRPRPIYGPRP | -0.289 |

From the supplement of paper PMC9112550, “Optimization of the antimicrobial peptide Bac7 by deep mutational scanning” (BMC Biology, 2022)
